{
  "source": "patent US10829528B2",
  "about": "“Therapeutic agents for neurological and psychiatric disorders” (VIB VZW, priority 2016, dated 2020)",
  "molecules": {"B1": {"name": "sAPPα: soluble amyloid precursor protein α ectodomain; mouse APP695 18-612aa, Fc tag cleaved (protein)", "chain": "LEVPTDGNAGLLAEPQIAMFCGKLNMHMNVQNGKWESDPSGTKTCIGTKEGILQYCQEVYPELQITNVVEANQPVTIQNWCKRGRKQCKTHTHIVIPYRCLVGEFVSDALLVPDKCKFLHQERMDVCETHLHWHTVAKETCSEKSTNLHDYGMLLPCGIDKFRGVEFVCCPLAEESDSVDSADAEEDDSDVWWGGADTDYADGGEDKVVEVAEEEEVADVEEEEADDDEDVEDGDEVEEEAEEPYEEATERTTSTATTTTTTTESVEEVVRVPTTAASTPDAVDKYLETPGDENEHAHFQKAKERLEAKHRERMSQVMREWEEAERQAKNLPKADKKAVIQHFQEKVESLEQEAANERQQLVETHMARVEAMLNDRRRLALENYITALQAVPPRPHHVFNMLKKYVRAEQKDRQHTLKHFEHVRMVDPKKAAQIRSQVMTHLRVIYERMNQSLSLLYNVPAVAEEIQDEVDELLQKEQNYSDDVLANMISEPRISYGNDALMPSLTETKTTVELLPVNGEFSLDDLQPWHPFGVDSVPANTENEVEPVDARPAADRGLTTRPGSGLTNIKTEEISEVKMDAEFGHDSGFEVRHQK"}},
  "key": {"[1]": {"biological_target": "T1, sushi1 domain of GABABR1a (Homo sapiens, UniProt Q9UBS5)", "T1 construct": "made in house", "T1 sequence (Q9UBS5 26-97)": "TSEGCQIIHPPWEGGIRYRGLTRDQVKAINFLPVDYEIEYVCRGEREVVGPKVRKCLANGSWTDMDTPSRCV", "assay": "Isothermal titration calorimetry (ITC) with purified sushi1", "format": "binding", "conditions": "25° C., read-out: dissociation constant (KD)", "method": "We first determined which GABAB subunit and isoform sAPPα bound. The GABABR is comprised of two subunits, the GABABR1 and the GABABR2 subunit. GABABR1 is present as two main isoforms (1a and 1b), with the only difference between these isoforms being the presence of two protein-binding sushi repeats in the ectodomain of GABABR1a (FIG. 1A-B). […] The sequence of the Sushi domain 1 is […].\nAll ITC experiments were carried out on a MicroCal iTC200 system. For ITC experiments involving APP constructs expressed in HEK293 cells, the purified GABABR1a-Sushi1 domain, sAPPα, CuBDAcD, AcD and CuBD constructs were buffer-exchanged by size exclusion chromatography in 20 mM Na-HEPES pH 7.0, 150 mM NaCl supplemented with 5 mM CaCl2. Concentrated samples were diluted and degassed before the experiment at the concentrations reported in the FIG. legends. sAPP fragments (all of them at 30 μM) were placed in the MicroCal sample cell and matching buffer was placed in the reference cell. Sushi1 (300 μM) was in the syringe and was injected into the cell in a series of 1 μL injections at 25° C. All the datasets were subtracted with a reference data consisting of serial injections of Sushi1 in the cell, containing buffer only under the same conditions. For ITC experiments involving synthetic APP peptides, the Sushi-1 protein was dialysed overnight to PBS buffer. […]"}, "[2]": {"test_system": "Schaffer collateral (SC) synapses in mouse hippocampus", "assay": "fEPSP field recordings at Schaffer collateral synapses in hippocampal slices", "format": "cell-based", "method": "We assessed the effect of sAPPα on the synaptic properties of Schaffer collateral (SC) synapses in mouse hippocampus. […] As change in probability of neurotransmitter release inversely correlates with a change in short-term facilitation, we applied a burst of 5 stimuli at 3 different frequencies (20, 50, and 100 Hz) to induce short-term facilitation at the SC. […] Preincubation with the GABABR antagonist CGP54626 (CGP, 10 μM) for 20 min before the incubation with sAPPα blocked its effects on the peak amplitude of the fESPS and the input/output slopes (FIG. 10f-g). Accordingly, CGP occluded sAPPα-induced augmentation of short-term facilitation at 20, 50, and 100 Hz burst frequencies (FIG. 10h-j).\nOn the day of recording the brain of a 2-month-old Balb/c male mouse was quickly removed and 400 μm-thick horizontal slices were prepared in an ice-cold oxygenated buffer containing (in mM): sucrose, 182; KCl, 2.5; MgSO4, 2; NaH2PO4, 1.25; NaHCO3, 25; CaCl2), 0.8; MgCl2, 5; glucose, 25; ascorbate, 1; HEPES, 20. The slicing procedure was performed using a Leica VT1200 vibrating microtome. Slices were then transferred to a submerged recovery chamber at room temperature containing oxygenated (95% 02 and 5% C02) storage artificial cerebrospinal fluid (ACSF) for 30 min before the incubations (see below). The storage ACSF contained, in mM: NaCl, 100; KCl, 2.5; MgSO4, 2; NaH2PO4, 1.25; NaHCO3, 25; CaCl2), 1.2; MgCl2, 3; glucose, 20; ascorbate, 1; sodium pyruvate,3 and HEPES, 20. The slices were incubated in the incubation chambers perfused with oxygenated storage ACSF containing the experimental agents for 90 min before performing field recordings: In the incubation chamber, control slices were perfused with normal storage ACSF while sAPPα slices were perfused with storage ACSF containing 1 μM sAPPα. CGP slices were perfused with storage ACSF containing 10 μM CGP54626 (Tocris). CGP+sAPPα slices were preincubated in the chamber perfused with ACSF+CGP before being transferred into the chamber perfused with storage ACSF implemented with 10 μM CGP54626+1 μM sAPPα. All recordings were performed at 32-33° C. in a recording chamber perfused with ACSF (4 ml/min) on the stage of an Olympus BX51WI microscope equipped with IR optics and oblique illumination. Recording ACSF contains, in mM: NaCl, 129; KCl, 2.5; CaCl2), 1.2; MgCl2, 1.2; NaHCO3, 25; NaH2PO4, 1.25; glucose, 15. Stimulation of the Schaffer-collateral was delivered through a glass suction electrode (10-20 μm tip) filled with ACSF. fEPSPs were recorded using a glass pipette containing ACSF (1-2 MΩ) from proximal synapses in the CA1 stratum radiatum. Field recording experiments were analyzed using Clampfit."}},
  "data": [
    {"molecule": "B1", "values": [
      {"measurement": "Kd", "setting": "[1]", "result": 431, "unit": "nM"},
      {"measurement": "effect on fEPSP amplitude", "setting": "[2]; 1 μM sAPPα incubation, 0.1 Hz stimulation", "result": "reducing fEPSP amplitude"},
      {"measurement": "decrease in the slope of the input/output curve", "setting": "[2]; 1 μM sAPPα incubation, 0.1 Hz stimulation, 30-150 μA", "result": 23, "unit": "%"},
      {"measurement": "short-term facilitation versus control slices", "setting": "[2]; burst of 5 stimuli at 20, 50 and 100 Hz, 1 μM sAPPα", "result": "significantly higher"}
    ]}
  ]
}
